Assay results from patent US20180355043A1 (Janssen / Centocor, published 2018).

What was measured:
[1] = molecular target: T1, DR4G112: Human HLA-DQA1*01:02/DQB1*06:02 ECD with PLP peptide PLP_178-186 (human); assay: MSD ECL; antigen coated
T1 construct: also called DQB6:02 PLP

[2] = molecular target: T2, DR4G111: Human HLA-DQA1*01:02/DQB1*06:02 ECD with insulin peptide INS_1-15 (human); assay: MSD ECL; antigen coated; mAb 5 µg/ml
T2 construct: also called DQB6:02
Description: (§1) Select generated antibodies were characterized for their binding to soluble HLA-DR, HLA-DQ or HLA-DP antigens with various peptides attached to the N-terminus of the beta chains. […] The soluble antigens of DR, DP and DQ were coated on MSD standard plates (Meso Scale Discovery, Cat. No. L15XA-3) at 5 μg/ml at 4° C. overnight. […] Binding to DR antigens was tested with four antibody concentrations ranging from 0.04-5 μg/ml. Binding to DP and DQ antigens was tested with one concentration at 5 μg/ml. After three washes, SulfoTag anti-human/NHP Kappa secondary antibody (Meso Scale Discovery, Cat. No. D20TF-6) was added and incubated for 1 hour. After another three washes, the plates were read under MSD reader (Meso Scale Discovery), and electrochemiluminescence (ECL) was measured.

[3] = molecular target: T3, DR4G113: Human HRA-DPA1*03/DPB1*04:01 ECD with NY-ESO peptide NY-ESO_157-169 (human); assay: MSD ECL; antigen coated; mAb 5 µg/ml
T3 construct: also called HLA-DP; DP4:01
Description: as §1
T3 MHC II alpha: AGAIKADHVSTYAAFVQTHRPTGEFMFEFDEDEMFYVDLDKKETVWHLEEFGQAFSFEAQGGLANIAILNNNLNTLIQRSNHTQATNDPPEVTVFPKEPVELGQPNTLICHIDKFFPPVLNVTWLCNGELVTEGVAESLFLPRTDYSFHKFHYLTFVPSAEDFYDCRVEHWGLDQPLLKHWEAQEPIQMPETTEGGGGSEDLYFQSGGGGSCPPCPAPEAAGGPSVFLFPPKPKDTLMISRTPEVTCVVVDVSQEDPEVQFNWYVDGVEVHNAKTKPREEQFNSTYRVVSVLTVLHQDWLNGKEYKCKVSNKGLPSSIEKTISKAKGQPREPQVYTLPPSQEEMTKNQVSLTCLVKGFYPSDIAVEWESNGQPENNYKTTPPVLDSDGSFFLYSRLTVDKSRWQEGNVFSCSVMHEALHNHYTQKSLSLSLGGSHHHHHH
T3 MHC II beta: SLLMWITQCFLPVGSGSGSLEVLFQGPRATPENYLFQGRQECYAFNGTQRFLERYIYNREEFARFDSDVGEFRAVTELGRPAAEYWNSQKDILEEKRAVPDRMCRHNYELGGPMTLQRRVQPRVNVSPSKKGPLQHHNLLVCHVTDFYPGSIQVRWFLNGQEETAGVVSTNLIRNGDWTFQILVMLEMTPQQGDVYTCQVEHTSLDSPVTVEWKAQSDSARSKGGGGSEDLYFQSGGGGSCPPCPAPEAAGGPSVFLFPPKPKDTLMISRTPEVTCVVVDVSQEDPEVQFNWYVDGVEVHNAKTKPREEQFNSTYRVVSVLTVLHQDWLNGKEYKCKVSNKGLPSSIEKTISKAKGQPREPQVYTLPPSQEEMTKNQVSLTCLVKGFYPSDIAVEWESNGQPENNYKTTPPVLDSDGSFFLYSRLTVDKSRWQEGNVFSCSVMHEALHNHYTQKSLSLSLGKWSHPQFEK

[4] = molecular target: DR4G90: Human HLA-DRA1*01:02/DRB1*04:01 ECD with collagen II peptide CII_1236-1249 (human); assay: MSD ECL; antigen coated; mAb 0.2 µg/ml
Description: as §1

[5] = molecular target: T4, DR4G99: Human HLA-DRA1*01:02/DRB1*01:01 ECD with collagen peptide CII_1236-1249 (human); assay: MSD ECL; antigen coated; mAb 0.2 µg/ml
T4 construct: also called DRG99
Description: as §1

[6] = molecular target: T5, DR4G92: Human HLA-DRA1*01:02/DRB1*04:01 ECD with collagen II peptide CII_257-273 (human); assay: MSD ECL; antigen coated; protocol of Example 3
T5 construct: also called HLA-DR4 with CII_257-273
Description: (§2) The soluble antigens of DR, DP and DQ were coated on MSD standard plates (Meso Scale Discovery, Cat. No. L15XA-3) at 5 μg/ml at 4° C. overnight. […] Binding to DR antigens was tested with four antibody concentrations ranging from 0.04-5 μg/ml. Binding to DP and DQ antigens was tested with one concentration at 5 μg/ml. After three washes, SulfoTag anti-human/NHP Kappa secondary antibody (Meso Scale Discovery, Cat. No. D20TF-6) was added and incubated for 1 hour. After another three washes, the plates were read under MSD reader (Meso Scale Discovery), and electrochemiluminescence (ECL) was measured.
(§3) Select antibodies were further characterized for their binding to soluble HLA-DR, HLA-DQ and HLA-DP antigens in complex with various peptides which were covalently attached to the N-terminus of the beta chains.

[7] = molecular target: T6, DR4G143: Human HLA-DRA1*01:02/DRB1*04:01 ECD_VimentineL70A (human); assay: MSD ECL; antigen coated; protocol of Example 3
T6 construct: also called DRB1*04:01 VitL70A
Description: as §2, §3

[8] = molecular target: T7, DR4G110: Human HLA-DRA1*01:02/DRB1*04:01 ECD with aggrecan peptide N1 (human); assay: MSD ECL; antigen coated; protocol of Example 3
T7 construct: also called DRB1*04:01 Aggrecan
Description: as §2, §3

[9] = molecular target: T8, DR4G86: Human HLA-DRA1*01:02/DRB1*04:01 ECD with CLIP peptide (human); assay: MSD ECL; antigen coated; protocol of Example 3
T8 construct: also called DRB1*04:01 CLIP; HLA-DR4 ECD
Description: as §2, §3

[10] = molecular target: DR4G102: Human HLA-DRA1*01:02/DRB1*01:01 ECD with collagen II peptide CII_257-273 (human); assay: MSD ECL; antigen coated; protocol of Example 3
[11] = molecular target: DR4G101: Human HLA-DRA1*01:02/DRB1*04:02 ECD with collagen II peptide CII_257-273 (human); assay: MSD ECL; antigen coated; protocol of Example 3
[12] = molecular target: DR4G98: Human HLA-DRA1*01:02/DRB1*04:02 ECD with collagen II peptide CII_1236-1249 (human); assay: MSD ECL; antigen coated; protocol of Example 3
[13] = molecular target: T9, DR4G96: Human HLA-DRA1*01:02/DRB1*01:01 ECD with CLIP peptide (human); assay: MSD ECL; antigen coated; protocol of Example 3
T9 construct: also called DRB1*01:01 CLIP

[14] = molecular target: T4, DR4G99: Human HLA-DRA1*01:02/DRB1*01:01 …; assay: MSD ECL; antigen coated; protocol of Example 3
[15] = molecular target: T10, DR4G142: Human HLA-DRA1*01:02/DRB1*03:01 ECD_VimentineL70A (human); assay: MSD ECL; antigen coated; protocol of Example 3;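 note: antibodies tested at 0.04–5 µg/ml on plate-coated soluble HLA-DR carrying peptide on the beta chain N-terminus, bound antibody detected by SulfoTag anti-human kappa secondary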
T10 construct: also called DRB1*03:01 VitL70A

[16] = molecular target: T11, DR4G117: Human HLA-DRA1*01:02/DRB1*03:01 ECD with Collagen II peptide CII_1236-1249 (human); assay: MSD ECL; antigen coated; protocol of Example 3;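 note: antibodies tested at 0.04–5 µg/ml on plate-coated soluble HLA-DR carrying peptide on the beta chain N-terminus, bound antibody detected by SulfoTag anti-human kappa secondary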
T11 construct: also called DRB1*03:01 CII_1236

[17] = molecular target: T12, DR4G97: Human HLA-DRA1*01:02/DRB1*15:01 ECD with collagen II peptide CII_1236-1249 (human); assay: MSD ECL; antigen coated; protocol of Example 3;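 note: antibodies tested at 0.04–5 µg/ml on plate-coated soluble HLA-DR carrying peptide on the beta chain N-terminus, bound antibody detected by SulfoTag anti-human kappa secondary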
T12 construct: also called DRB1*15:01 CII_1236

[18] = molecular target: T13, DR4G115 (HLA DPB4:01, peptide LCAP) (human); assay: MSD ECL; antigen coated; protocol of Example 3;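 note: antibody binding to plate-coated soluble HLA class II antigens carrying peptides fused at the beta-chain N-terminus, detected with a SulfoTag anti-human Kappa secondary antibody for 1 hour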
T13 construct: extracellular domain

B1: DR4B6 (antibody, V domains shown)
VH: QIQLVQSGPELKKPGETVKISCKASGFTFTNYGMNWVKQAPGKGLKWMGWINTYTREPTYADDFKGRFAFSLETSASTAYLQINNLKNEDTAKYFCARDITAVVPTGFDYWGQGTTLTVSS
VL: DIQMTQSPASLSVSVGETVTITCRASENIYSNLAWYRQKQGKSPQLLVFAASNLADGVPSRFSGSGSGTQYSLKINSLQSEDFGDYYCQHFWTTPWAFGGGTNLEIK
notes: also called L243 re-engineered as IgG2sigma
Question: Does B1 bind [1]?
Answer: Result: no binding

Question: What about the ECL signal [2] of the same binder?
Answer: Its ECL signal is 282 ECL.

Question: What about the ECL signal [3] of the same binder?
Answer: Its ECL signal is 298 ECL.

Question: What about the ECL signal [4] of the same binder?
Answer: Its ECL signal is 1.35e+06 ECL.

Question: And the ECL signal [5]?
Answer: Its ECL signal is 1.24e+06 ECL.

Question: What about the ECL signal [6] of the same binder?
Answer: The ECL signal was 608000 ECL.

Question: And the ECL signal [7]?
Answer: The ECL signal was 520000 ECL.

Question: And the ECL signal [8]?
Answer: The ECL signal was 372000 ECL.

Question: What about the ECL signal [9] of the same binder?
Answer: The ECL signal was 588000 ECL.

Question: And the ECL signal [10]?
Answer: Its ECL signal is 693000 ECL.

Question: What about the ECL signal [11] of the same binder?
Answer: The ECL signal was 615000 ECL.

Question: What about the ECL signal [12] of the same binder?
Answer: The ECL signal was 623000 ECL.

Question: What about the ECL signal [13] of the same binder?
Answer: Its ECL signal is 627000 ECL.

Question: And the ECL signal [14]?
Answer: Its ECL signal is 672000 ECL.

Question: And the ECL signal [15]?
Answer: Its ECL signal is 399000 ECL.

Question: And the ECL signal [16]?
Answer: Its ECL signal is 620000 ECL.

Question: What about the ECL signal [17] of the same binder?
Answer: The ECL signal was 222000 ECL.

Question: What about the ECL signal [18] of the same binder?
Answer: Its ECL signal is 67 ECL.

B2: DR4B5 (antibody, V domains shown)
VH: QVQLQESGPGLVKPSETLSLTCTVSGFSLTNYGVHWVRQSPGKGLEWIGVKWSGGSTEYNAAFISRLTISKDTSKNQVSLKLNSLTAADTAVYYCARNDRYAMDYWGQGTLVTVSS
VL: DIQMTQSPSSLSASVGDRVTITCRASENIYSYLAWYQQKPGKAPKLLVSNAKTLAEGVPSRFSGSGSGKQFTLTISSLQPEDFATYYCQHHYGNSYPFGQGTKLEIK
notes: also called apolizumab (1D10) re-engineered as IgG2sigma
Question: Does B2 bind [1]?
Answer: Result: no binding

Question: What about the ECL signal [2] of the same binder?
Answer: The ECL signal was 195 ECL.

Question: What about the ECL signal [3] of the same binder?
Answer: Its ECL signal is 120 ECL.

Question: What about the ECL signal [4] of the same binder?
Answer: Its ECL signal is 1.31e+06 ECL.

Question: And the ECL signal [5]?
Answer: The ECL signal was 1.18e+06 ECL.

Question: And the ECL signal [6]?
Answer: The ECL signal was 49000 ECL.

Question: What about the ECL signal [7] of the same binder?
Answer: The ECL signal was 22600 ECL.

Question: And the ECL signal [8]?
Answer: Its ECL signal is 8040 ECL.

Question: What about the ECL signal [9] of the same binder?
Answer: Its ECL signal is 7030 ECL.

Question: What about the ECL signal [10] of the same binder?
Answer: Its ECL signal is 62500 ECL.

Question: What about the ECL signal [11] of the same binder?
Answer: The ECL signal was 723 ECL.

Question: What about the ECL signal [12] of the same binder?
Answer: The ECL signal was 469 ECL.

Question: And the ECL signal [13]?
Answer: Its ECL signal is 20600 ECL.

Question: And the ECL signal [14]?
Answer: The ECL signal was 45900 ECL.

Question: And the ECL signal [15]?
Answer: The ECL signal was 1330 ECL.

Question: What about the ECL signal [16] of the same binder?
Answer: The ECL signal was 730 ECL.

Question: What about the ECL signal [17] of the same binder?
Answer: The ECL signal was 256 ECL.

Question: What about the ECL signal [18] of the same binder?
Answer: Its ECL signal is 70 ECL.
